Assay results taken from patent publication US20260266848A1, “COMPOSITIONS AND METHODS FOR DIAGNOSING AND TREATING DYSTONIA” (Duke University, priority 2023, published 2026).

B1: Slc9a1 (protein, UniProt Q61165 1-820, looked up)
Sodium/hydrogen exchanger 1: MMLRWSGVWGFHPPRIFPSLLVVVALVGLLPVLRSHGLQHSPTASTIRGSEPPRERSIGDVTTAPSEPLHRPDDHNLTNLIIEHGGKPSRKAFPVLDIDYPHVRTPFEISLWILLACLMKIGFHVIPTISSIVPESCLLIVVGLLVGGLIKGVGETPPFLQSDVFFLFLLPPIILDAGYFLPLRQFTENLGTILIFAVVGTLWNAFFLGGLLYAVCLVGGEQINNIGLLDTLLFGSIISAVDPVAVLAVFEEIHINELLHILVFGESLLNDAVTVVLYHLFEEFASYDSVGISDIFLGFLSFFVVALGGVFVGVVYGVIAAFTSRFTSHIRVIEPLFVFLYSYMAYLSAELFHLSGIMALIASGVVMRPYVEANISHKSHTTIKYFLKMWSSVSETLIFIFLGVSTVAGSHQWNWTFVISTLLFCLIARVLGVLVLTWFINKFRIVKLTPKDQFIIAYGGLRGAIAFSLGYLLDKKHFPMCDLFLTAIITVIFFTVFVQGMTIRPLVDLLAVKKKQETKRSINEEIHTQFLDHLLTGIEDICGHYGHHHWKDKLNRFNKKYVKKCLIAGERSKEPQLIAFYHKMEMKQAIELVESGGMGKIPSAVSTVSMQNIHPKAVTSDRILPALSKDKEEEIRKILRSNLQKTRQRLRSYNRHTLVADPYEEAWNQMLLRRQKARQLEQKITNYLTVPAHKLDSPTLSRARIGSDPLAYEPKADLPVITIDPASPQSPESVDLVNEELKGKVLGLNRGPRVTPEEEEEDEDGIIMIRSKEPSSPGTDDVFTPGSSDSPSSQRIQRCLSDPGPHPEPGEGEPFIPKGQ
B2: Nectin2 (protein, UniProt Q92692 32-538, looked up)
Nectin-2: QDVRVQVLPEVRGQLGGTVELPCHLLPPVPGLYISLVTWQRPDAPANHQNVAAFHPKMGPSFPSPKPGSERLSFVSAKQSTGQDTEAELQDATLALHGLTVEDEGNYTCEFATFPKGSVRGMTWLRVIAKPKNQAEAQKVTFSQDPTTVALCISKEGRPPARISWLSSLDWEAKETQVSGTLAGTVTVTSRFTLVPSGRADGVTVTCKVEHESFEEPALIPVTLSVRYPPEVSISGYDDNWYLGRTDATLSCDVRSNPEPTGYDWSTTSGTFPTSAVAQGSQLVIHAVDSLFNTTFVCTVTNAVGMGRAEQVIFVRETPNTAGAGATGGIIGGIIAAIIATAVAATGILICRQQRKEQTLQGAEEDEDLEGPPSYKPPTPKAKLEAQEMPSQLFTLGASEHSPLKTPYFDAGASCTEQEMPRYHELPTLEERSGPLHPGATSLGSPIPVPPGPPAVEDVSLDLEDEEGEEEEEYLDKINPIYDALSYSSPSDSYQGKGFVMSRAMYV
B3: Fgfr1 (protein, UniProt P16092 22-822, looked up)
Fibroblast growth factor …: RPAPTLPEQAQPWGVPVEVESLLVHPGDLLQLRCRLRDDVQSINWLRDGVQLVESNRTRITGEEVEVRDSIPADSGLYACVTSSPSGSDTTYFSVNVSDALPSSEDDDDDDDSSSEEKETDNTKPNRRPVAPYWTSPEKMEKKLHAVPAAKTVKFKCPSSGTPNPTLRWLKNGKEFKPDHRIGGYKVRYATWSIIMDSVVPSDKGNYTCIVENEYGSINHTYQLDVVERSPHRPILQAGLPANKTVALGSNVEFMCKVYSDPQPHIQWLKHIEVNGSKIGPDNLPYVQILKTAGVNTTDKEMEVLHLRNVSFEDAGEYTCLAGNSIGLSHHSAWLTVLEALEERPAVMTSPLYLEIIIYCTGAFLISCMLGSVIIYKMKSGTKKSDFHSQMAVHKLAKSIPLRRQVTVSADSSASMNSGVLLVRPSRLSSSGTPMLAGVSEYELPEDPRWELPRDRLVLGKPLGEGCFGQVVLAEAIGLDKDKPNRVTKVAVKMLKSDATEKDLSDLISEMEMMKMIGKHKNIINLLGACTQDGPLYVIVEYASKGNLREYLQARRPPGLEYCYNPSHNPEEQLSSKDLVSCAYQVARGMEYLASKKCIHRDLAARNVLVTEDNVMKIADFGLARDIHHIDYYKKTTNGRLPVKWMAPEALFDRIYTHQSDVWSFGVLLWEIFTLGGSPYPGVPVEELFKLLKEGHRMDKPSNCTNELYMMMRDCWHAVPSQRPTFKQLVEDLDRIVALTSNQEYLDLSIPLDQYSPSFPDTRSSTCSSGEDSVFSHEPLPEEPCLPRHPTQLANSGLKRR
B4: Nif3l1 (protein, UniProt Q9EQ80 1-376, looked up)
NIF3-like protein 1: MLSSAHLVPTSVQRAQSWICRSSRSFMDLKALLSSLNDFASLSFAESWDNVGLLVEPSPPHTVNTLFLTNDLTEEVMDEALQKKADFILSYHPPIFRPMKHITWKTWKECLVIRALENRVAVYSPHTAYDAAPQGVNSWLAKGLGTCTTRPIHPSRAPDYPTEGAHRLEFSVNRSQDLDKVMSTLRGVGGVSVTSFPARCDGEEQTRISLNCTQKTLMQVLAFLSQDRQLYQKTEILSLEKPLLLHTGMGRLCTLDESVSLAIMIERIKTHLKLSHLRLALGVGRTLESQVKVVALCAGSGGSVLQGVEADLYLTGEMSHHDVLDAASKGINVILCEHSNTERGFLSELQEMLGVHFENKINIILSETDRDPLRVV
B5: Txnl1 (protein, UniProt O43396 2-289, looked up)
Thioredoxin-like protein 1: VGVKPVGSDPDFQPELSGAGSRLAVVKFTMRGCGPCLRIAPAFSSMSNKYPQAVFLEVDVHQCQGTAATNNISATPTFLFFRNKVRIDQYQGADAVGLEEKIKQHLENDPGSNEDTDIPKGYMDLMPFINKAGCECLNESDEHGFDNCLRKDTTFLESDCDEQLLITVAFNQPVKLYSMKFQGPDNGQGPKYVKIFINLPRSMDFEEAERSEPTQALELTEDDIKEDGIVPLRYVKFQNVNSVTIFVQSNQGEEETTRISYFTFIGTPVQATNMNDFKRVVGKKGESH
B6: Aldh2 (protein, UniProt P47738 20-519, looked up)
Aldehyde dehydrogenase, …: SAAATSAVPAPNHQPEVFCNQIFINNEWHDAVSRKTFPTVNPSTGEVICQVAEGNKEDVDKAVKAARAAFQLGSPWRRMDASDRGRLLYRLADLIERDRTYLAALETLDNGKPYVISYLVDLDMVLKCLRYYAGWADKYHGKTIPIDGDFFSYTRHEPVGVCGQIIPWNFPLLMQAWKLGPALATGNVVVMKVAEQTPLTALYVANLIKEAGFPPGVVNIVPGFGPTAGAAIASHEGVDKVAFTGSTEVGHLIQVAAGSSNLKRVTLELGGKSPNIIMSDADMDWAVEQAHFALFFNQGQCCCAGSRTFVQENVYDEFVERSVARAKSRVVGNPFDSRTEQGPQVDETQFKKILGYIKSGQQEGAKLLCGGGAAADRGYFIQPTVFGDVKDGMTIAKEEIFGPVMQILKFKTIEEVVGRANDSKYGLAAAVFTKDLDKANYLSQALQAGTVWINCYDVFGAQSPFGGYKMSGSGRELGEYGLQAYTEVKTVTVKVPQKNS
B7: Steap3 (protein, UniProt Q8CI59 1-488, looked up)
Metalloreductase STEAP3: MSGEMDKPLISRRLVDSDGSLAEVPKEAPKVGILGSGDFARSLATRLVGSGFSVVVGSRNPKRTAGLFPSLAQVTFQEEAVSSPEVIFVAVFREHYSSLCSLADQLAGKILVDVSNPTEKEHLQHRQSNAEYLASLFPACTVVKAFNVISAWALQAGPRDGNRQVLICSDQPEAKRTISEMARAMGFTPLDMGSLASAREVEAIPLRLLPSWKVPTLLALGLFVCFYTYNFIRDVLQPYIRKDENKFYKMPLSVVNTTLPCVAYVLLSLVYLPGVLAAALQLRRGTKYQRFPDWLDHWLQHRKQIGLLSFFFAMLHALYSFCLPLRRSHRYDLVNLAVKQVLANKSRLWVEEEVWRMEIYLSLGVLALGMLSLLAVTSLPSIANSLNWKEFSFVQSTLGFVALILSTMHTLTYGWTRAFEENHYKFYLPPTFTLTLLLPCVIILAKGLFLLPCLSRRLTKIRRGWEKDGAVKFMLPGDHTQGEKTSHV

tested on: DYT-TOR1A MEF EVs; experiment: Quantitative LC-MS/MS proteomics of EVs from drug-treated DYT-TOR1A MEF cultures (ritonavir, salubrinal); format: cell-based, mouse; parameters: key to RTV Corrective Direction / RTV Corrective Direction, Grwd1 / RTV Corrective Direction, Srrm2 / RTV Corrective Direction, Rbm17 / RTV Corrective Direction, Dcaf8 / RTV Corrective Direction, Edil3 / RTV Corrective Direction, Timp3 / RTV Corrective Direction, Heatr3 / RTV Corrective Direction, Brd4 / RTV Corrective Direction, P3h4 / RTV Corrective Direction, Pacsin3 / RTV Corrective Direction, Naa50 / RTV Corrective Direction, Lpar6 / RTV Corrective Direction, Ndrg1 / RTV Corrective Direction, Kntc1 / RTV Corrective Direction, Cdk11b / RTV Corrective Direction, Sumo1 / RTV Corrective Direction, Lsm4 / RTV Corrective Direction, Hmga2 / RTV Corrective Direction, Cstf1 / RTV Corrective Direction, Tes / RTV Corrective Direction, Sbno1 / RTV Corrective Direction, Unc119b / RTV Corrective Direction, Cfdp1 / RTV Corrective Direction, Sec61b: YES = protein abundance effect opposite to DYT/WT; details: EV protein abundance, DYT + RTV (ritonavir) vs DYT, direction compared with DYT/WT

Question: B1 was tested. Which “RTV Corrective Direction” value did it give?
Answer: Its value is “YES”.

Question: B2 was tested. Which “RTV Corrective Direction” value did it give?
Answer: The value was “YES”.

Question: How did the “RTV Corrective Direction” value turn out when B3 was run?
Answer: The value was “YES”.

Question: Which “RTV Corrective Direction” value does the source give for B4 here?
Answer: Its value is “YES”.

Question: With B5 as the molecule, how does the “RTV Corrective Direction” value read?
Answer: The value was “YES”.

Question: How did the “RTV Corrective Direction” value turn out when B6 was run?
Answer: The value was “YES”.

Question: B7 was tested. Which “RTV Corrective Direction” value did it give?
Answer: Its value is “YES”.

same assay, conditions: EV protein abundance, ritonavir (RTV)-treated DYT vs DYT

Question: For B1, which “DYT + RTV/DYT Cohen's d” value is on record?
Answer: Its value is −2.60.

Question: With B2 as the molecule, how does the “DYT + RTV/DYT Cohen's d” value read?
Answer: The value was 3.32.

Question: Which “DYT + RTV/DYT Cohen's d” value does the source give for B3 here?
Answer: The value was −2.81.

Question: How did the “DYT + RTV/DYT Cohen's d” value turn out when B4 was run?
Answer: The value was 1.58.

Question: B5 was tested. Which “DYT + RTV/DYT Cohen's d” value did it give?
Answer: The value was 1.99.

Question: How did the “DYT + RTV/DYT Cohen's d” value turn out when B6 was run?
Answer: Its value is 18.21.

Question: With B7 as the molecule, how does the “DYT + RTV/DYT Cohen's d” value read?
Answer: The value was 1.81.

tested on: WT MEF EVs; experiment: Quantitative LC-MS/MS proteomics of EVs from ISRIB-treated WT MEF cultures; format: cell-based, mouse; parameters: key to ISRIB and DYT Parallel Direction / ISRIB and DYT Parallel Direction, Ctdsp1 / ISRIB and DYT Parallel Direction, Pcdh19 / ISRIB and DYT Parallel Direction, Tspan7 / ISRIB and DYT Parallel Direction, Myo1e / ISRIB and DYT Parallel Direction, Plpp3 / ISRIB and DYT Parallel Direction, Sh3bp4 / ISRIB and DYT Parallel Direction, Dnajc7 / ISRIB and DYT Parallel Direction, Drg1 / ISRIB and DYT Parallel Direction, Maea: YES = protein abundance effect similar to DYT/WT; details: EV protein abundance, ISRIB-treated WT vs WT

Question: B1 was tested. Which “WT + ISRIB/WT Cohen's d” value did it give?
Answer: The value was 0.44.

Question: With B2 as the molecule, how does the “WT + ISRIB/WT Cohen's d” value read?
Answer: Its value is −1.19.

Question: How did the “WT + ISRIB/WT Cohen's d” value turn out when B3 was run?
Answer: The value was 5.66.

Question: With B4 as the molecule, how does the “WT + ISRIB/WT Cohen's d” value read?
Answer: The value was −3.93.

Question: With B5 as the molecule, how does the “WT + ISRIB/WT Cohen's d” value read?
Answer: The value was −0.66.

Question: B6 was tested. Which “WT + ISRIB/WT Cohen's d” value did it give?
Answer: Its value is −7.25.

Question: With B7 as the molecule, how does the “WT + ISRIB/WT Cohen's d” value read?
Answer: Its value is −3.91.

same assay, conditions: EV protein abundance, WT + ISRIB vs WT, direction compared with DYT/WT

Question: For B1, which “ISRIB and DYT Parallel Direction” value is on record?
Answer: Its value is “YES”.

Question: Which “ISRIB and DYT Parallel Direction” value does the source give for B2 here?
Answer: Its value is “YES”.

Question: For B3, which “ISRIB and DYT Parallel Direction” value is on record?
Answer: The value was “YES”.

Question: For B4, which “ISRIB and DYT Parallel Direction” value is on record?
Answer: The value was “YES”.

Question: For B5, which “ISRIB and DYT Parallel Direction” value is on record?
Answer: Its value is “YES”.

Question: How did the “ISRIB and DYT Parallel Direction” value turn out when B6 was run?
Answer: Its value is “YES”.

Question: How did the “ISRIB and DYT Parallel Direction” value turn out when B7 was run?
Answer: Its value is “YES”.
